We go through 21 sequences from the nanobody polyreactivity screen of Harvey et al. (2022).

A short description of this data set: yeast display, Sf9 membrane polyspecificity reagent, FACS + sequencing; frameworks hold sequencing errors. The gist of the method:
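Polyreactivity labels are assigned by the sorting gate from which each nanobody was recovered. The gates were low and high (top ~1%), set on anti-HA fluorescence for expression and streptavidin fluorescence for reagent binding. Before sorting, galactose-induced (36–48 hours) yeast display cells were stained for 1 hour at 4 °C with 10% biotinylated, detergent-solubilized Sf9 membrane reagent.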
Turning to “QVQLVESGGGLVQAGGSLRLSCAASGLIFWKYAMGWYREAPGKERELVAAITSGGSTNYADSVKGRFTISRDNAKNPVYLQMNSLKPEDTAVYYCNARSWFEYYWGQGTQVTVSS”, the “polyreactivity (PSR sort gate)” value is “high polyreactivity”. As for “QVQLVESGGGLVQAGGSLRLSCAASGLIFWKYARGWYRQAPGKERELVAAIRKSVGSTYYADSVKGRFTISRDNAKNTVYLQMNSLKPEDTAVYYCAAVNAGVGSPVKRDYWGQGTQVTVSS”, the entry is “high polyreactivity”; as for “QVQLVESGGGLVQAGGSLRLSCAASGLIFWLNAMGWYRQAPGKERELVATITAGGDDTNYADSVKGRFTISRDNAKNTVYLQMNSLKPEDTAVYYCAKSRTRSGHYGYDYWGQGTQVTVSS”, “low polyreactivity”; as for “QVQLVESGGGLVQAGGSLRLSCAASGLIFWYSAMGWYRQAPGKERELVAAISSGGSTNYADSVKGRFTISRDNAKNTVYLQMNSLKPEDTAVYYCNVYTYRFHTARQAVDYWGQGTQVTVSS”, “low polyreactivity”.

For the sequence “QVQLVESGGGLVQAGGSLRLSCAASGLIFYDNMGWYRQAPGKERELVAAISSSGGSTSYADSVKGRFTISRDNAKNTVYLQMNSLKPEDTAVYDSAADSYPAYLGFVGFDYWGQGTQVTVSS”, the “polyreactivity (PSR sort gate)” value is listed as “low polyreactivity”. Turning to “QVQLVESGGGLVQAGGSLRLSCAASGLIFYDNVMGWYRQAPVKEREFVAAITSIGGSTYYADSVKGRFTISRDNAKNTVYLQMNSLKPEDTAVYYCNVKSKYYSPNYDYWGQGTQVTVSS”, the “polyreactivity (PSR sort gate)” value is on record as “low polyreactivity”. Consider “QVQLVESGGGLVQAGGSLRLSCAASGLIFYFYAMGWYRQAPGKERELVAAISSRGGRTYYADSVKGRFTISRDNAKNTVYLQMNSLKPEDTAVYYCNVDQLLRRTSAQGDYWGQGTQVTVSS”, for which the “polyreactivity (PSR sort gate)” value is reported as “high polyreactivity”. “QVQLVESGGGLVQAGGSLRLSCAASGLIFYGNAMGWYRKAPGKERELVAAISWSGGNTSYADSVKGRFTISRDNAKNTVYVLMNSLKAEDTAVDYCNADSLPSLERYGYWGQGTQVTVSS”: the “polyreactivity (PSR sort gate)” value is “low polyreactivity”.

For “QVQLVESGGGLVQAGGSLRLSCAASGLIFYIYAMGRYREAPGKERELVAAISSSGGSTFYADSVKGRFTISRDNAKNTVYLQMNSLKPEDTAVYYCAAYYGGGYGFHRDYWGQGTQVTVSS”, the “polyreactivity (PSR sort gate)” value is “high polyreactivity”. Turning to “QVQLVESGGGLVQAGGSLRLSCAASGLIFYIYMGWYRQAPGKESELVAVISSSGNSTYYADSVKGRFTISRYNAKNTVYLQLNSLKPEDTAVYYCNASAYYPPSSSRYYYWGQGTQVTVSS”, the “polyreactivity (PSR sort gate)” value is listed as “low polyreactivity”. For the sequence “QVQLVESGGGLVQAGGSLRLSCAASGLIFYKYAMGWYRPAPGKERELVAAISSSGGSTYYADSVKGRFTISRDNAKNTVYLQMNSLKPEDTAVYYCAARTNRRGYNYWGQGTQVTVSS”, the “polyreactivity (PSR sort gate)” value is on record as “high polyreactivity”.

For the sequence “QVQLVESGGGLVQAGGSLRLSCAASGLIFYKYAMGWYRQAPGKERELVAAITSGGSTNYADSVKGRFTISRDNAKNTVYLQMNSLKPEDTAVYYCNADYNLYLVVRWWYPPVDYWGQGTQVTVSS”, the “polyreactivity (PSR sort gate)” value is “low polyreactivity”. As for “QVQLVESGGGLVQAGGSLRLSCAASGLIFYLYAMGWYRQAPGKERELVAAITSGGGSTYYADSVKGRFTHSRDHAKNTVYLQMNSLKPEDTGVYYCAARLVLYITVVYEDDYWGQGTQVTVSS”, the “polyreactivity (PSR sort gate)” value is “low polyreactivity”.

For the sequence “QVQLVESGGGLVQAGGSLRLSCAASGLIFYPNGMGWYRQAPGKERELVAAITYSDGSTYYADSVKGRCTISRDNAKNTVYLQMNSLKPEDTAVYYCTARWGYRRGYWGQGTQVTVSS”, the “polyreactivity (PSR sort gate)” value is on record as “high polyreactivity”.

Turning to “QVQLVESGGGLVQAGGSLRLSCAASGLIFYRNAMGWYRQAPGKERELVAAIRFSTGSTYYADSVKGRFTISRDNAKKTVYLQMNSLKPEDTAVYYCAADRRYYWYNYWGQGTQVTVSS”, the “polyreactivity (PSR sort gate)” value was “high polyreactivity”. For “QVQLVESGGGLVQAGGSLRLSCAASGLIFYTYAMGWYRQAPGKERELVAGISRSGTSTRYADSVKGRFTISRDNAKNTVYLQMNSLKPEDTAVYYCNAVGRSKHGYSRSYYWGQGTQVTVSS”, the “polyreactivity (PSR sort gate)” value is given as “high polyreactivity”. As for “QVQLVESGGGLVQAGGSLRLSCAASGLIFYTYAMGWYRQAPGKERELVATISGRGGSTYYADSVKGRFTISRDNAKNTVYLQMNSLKPEDTAVYYCNVVPSTYYQYDYWGQGTQVTVSS”, the “polyreactivity (PSR sort gate)” value is recorded as “high polyreactivity”.

With “QVQLVESGGGLVQAGGSLRLSCAASGLIFYYYALAWYRQAPGKERELVAAITWTAGSTSYADSVKGRFTISRDNAKNTVYLQMNRLKPEDTAVYYCAADYRHDTFSNEYDYWGQGTQVTVSS”, the “polyreactivity (PSR sort gate)” value is listed as “low polyreactivity”.

“QVQLVESGGGLVQAGGSLRLSCAASGLIIPKYAMGWYRQAPGKEREFVAAISGRGGTTYYADSVKGRFTISRDNAKNTVYLQMYSLKPEDTAVYYCAAGGPWANIYGNGYWGQGTQVTVSS”: the “polyreactivity (PSR sort gate)” value was “high polyreactivity”.

As for “QVQLVESGGGLVQAGGSLRLSCAASGLILDGYAMGWYRQAPGKERELVAAITRSGGRTYYADSVKGRFTISRDNAKNTVYLQMNSLKPEDTAVYYCAALGWSGRYSYDYWGQGTQVTVSS”, the “polyreactivity (PSR sort gate)” value was “high polyreactivity”. Consider “QVQLVESGGGLVQAGGSLRLSCAASGLILKYYAMGWYRQAPGKEREFVAAISSSGTRTYADSVKGRFTISRDNAKNTVYLQMNSLKPEDTAVYYCAKDYRVWVAATIAHDYWGQGTQVTVSS”, for which the “polyreactivity (PSR sort gate)” value was “low polyreactivity”.
